Data: patent US20250129135A1, “Multi-Agonist and Use Thereof” (priority 2021, published 2025)

How the values were obtained:
Test in all cases: cell-based or functional assay
human GIP receptor = target: T1, human GIP receptor (human, UniProt P48546 22-466)
T1 sequence (looked up): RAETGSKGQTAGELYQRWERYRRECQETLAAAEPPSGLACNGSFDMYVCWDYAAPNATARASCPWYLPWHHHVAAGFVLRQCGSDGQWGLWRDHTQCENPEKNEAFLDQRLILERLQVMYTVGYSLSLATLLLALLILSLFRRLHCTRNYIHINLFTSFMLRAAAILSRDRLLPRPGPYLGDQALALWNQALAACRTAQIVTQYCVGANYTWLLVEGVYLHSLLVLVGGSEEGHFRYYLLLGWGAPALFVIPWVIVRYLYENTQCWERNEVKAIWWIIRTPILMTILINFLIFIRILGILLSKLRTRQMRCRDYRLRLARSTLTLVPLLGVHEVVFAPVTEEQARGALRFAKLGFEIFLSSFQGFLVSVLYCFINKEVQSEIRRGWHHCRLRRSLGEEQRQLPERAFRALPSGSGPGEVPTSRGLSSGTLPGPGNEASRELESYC

human GCG receptor = human GCG receptor (human, UniProt P47871 26-477)
human GCG receptor, sequence (P47871 26-477): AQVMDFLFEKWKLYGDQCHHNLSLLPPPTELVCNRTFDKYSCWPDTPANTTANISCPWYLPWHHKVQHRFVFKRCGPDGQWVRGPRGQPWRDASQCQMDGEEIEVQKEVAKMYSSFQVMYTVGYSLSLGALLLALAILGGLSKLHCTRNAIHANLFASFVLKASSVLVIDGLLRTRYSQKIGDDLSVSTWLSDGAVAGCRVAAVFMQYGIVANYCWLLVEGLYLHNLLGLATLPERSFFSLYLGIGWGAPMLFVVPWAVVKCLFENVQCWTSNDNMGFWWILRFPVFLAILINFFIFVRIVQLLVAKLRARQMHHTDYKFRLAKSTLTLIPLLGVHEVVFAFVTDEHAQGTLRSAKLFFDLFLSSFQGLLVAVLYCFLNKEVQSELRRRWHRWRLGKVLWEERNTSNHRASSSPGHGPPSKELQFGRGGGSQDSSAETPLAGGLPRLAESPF

human GLP-1 receptor = human GLP-1 receptor (human, UniProt P43220 24-463)

Row | Binder | cAMP EC50, CHO cells stably overexpressing human GIP R (human GIP receptor) [nM] | cAMP Rel. A (%) against human GIP, human GIP R cells (human GIP receptor) [%] | cAMP EC50, HEK-293 cells stably overexpressing human GCG R (human GCG receptor) [nM] | cAMP Rel. A (%) against human GCG, human GCG R cells (human GCG receptor) [%] | cAMP EC50, HEK-293 cells stably overexpressing human GLP-1 R (human GLP-1 receptor) [nM] | cAMP Rel. A (%) against human GLP-1 (7-37), human GLP-1 R cells (human GLP-1 receptor) [%]
1 | YXQGTXTSDYSIXLDKKAQXAFIEFLLESHPSSXHPPXS (Aib at 2; αMeF at 6; αMeL at 13; Lys 17 side chain AEEAc-AEEAc-γGlu-CO(CH2)18COOH; Aib at 20; Aib at 34; Ac3c at 38; C-terminal amide (NH2)) [Compound 33] | 0.008 | 2260 | 0.155 | 36.8 | 0.019 | 232
2 | YXQGTXTSDYSIXLDKKAQXAFIEFLLETRPSSXHPPPS (Aib at 2; αMeF(2F) at 6; αMeL at 13; Lys 17 side chain AEEAc-AEEAc-γGlu-CO(CH2)18COOH; Aib at 20; Aib at 34; C-terminal amide (NH2)) [Compound 39] | 0.015 | 1210 | 0.153 | 37.2 | 0.078 | 56.4
3 | YXQGTXTSDYSILLDKKAQXAFIEFLLESHPSSXHPPXS (Aib at 2; αMeF at 6; Lys 17 side chain AEEAc-AEEAc-γGlu-CO(CH2)18COOH; Aib at 20; Aib at 34; Ac3c at 38; C-terminal amide (NH2)) [Compound 42] | 0.07 | 259 | 0.495 | 11.5 | 0.009 | 489
4 | YXQGTXTSDYSIXLDKKAQXAFIEFLLESHPSSXHPPXS (Aib at 2; αMeF(2F) at 6; αMeL at 13; Lys 17 side chain AEEAc-AEEAc-γGlu-CO(CH2)18COOH; Aib at 20; Aib at 34; Ac3c at 38; C-terminal amide (NH2)) [Compound 40] | 0.12 | 151 | 0.167 | 34.1 | 0.016 | 275
5 | YXQGTXTSDYSIXLDKKAQXAFIEYLLESHPSSXHPPXS (Aib at 2; αMeF(2F) at 6; αMeL at 13; Lys 17 side chain AEEAc-AEEAc-γGlu-CO(CH2)18COOH; Aib at 20; Aib at 34; Ac3c at 38; C-terminal amide (NH2)) [Compound 43] | 0.041 | 441 | 0.127 | 44.9 | 0.01 | 440
6 | YXQGTXTSDYSIFLDKKAQXAFIEFLLESHPSSGAPPXS (Aib at 2; αMeF(2F) at 6; Lys 17 side chain AEEAc-AEEAc-γGlu-CO(CH2)18COOH; Aib at 20; Ac3c at 38; C-terminal amide (NH2)) [Compound 10] | 0.021 | 862 | 0.076 | 75 | 0.047 | 93.6
7 | YXQGTXTSDYSIXLDKKAQXAFIEFLLEGGPSSXHPPPS (Aib at 2; αMeF at 6; αMeL at 13; Lys 17 side chain AEEAc-AEEAc-γGlu-CO(CH2)18COOH; Aib at 20; Aib at 34; C-terminal amide (NH2)) [Compound 36] |  | 2590 |  | 127 | 0.025 | 176
8 | YXQGTXTSDYSIXLDKKAQXAFIEFLLEGRPSSXHPPPS (Aib at 2; αMeF at 6; αMeL at 13; Lys 17 side chain AEEAc-AEEAc-γGlu-CO(CH2)18COOH; Aib at 20; Aib at 34; C-terminal amide (NH2)) [Compound 37] | 0.015 | 1210 | 0.082 | 69.5 | 0.028 | 157
9 | YXQGTXTSDYSILLDKKAQXAFIEFLLESHPSSXHPPXS (Aib at 2; αMeF(2F) at 6; Lys 17 side chain AEEAc-AEEAc-γGlu-CO(CH2)18COOH; Aib at 20; Aib at 34; Ac3c at 38; C-terminal amide (NH2)) [Compound 41] | 0.073 | 248 | 0.081 | 70.4 | 0.012 | 367
10 | YXQGTXTSDYSIXLDKKAQXAFIEYLLESHPSSGAPPXS (Aib at 2; αMeF at 6; αMeL at 13; Lys 17 side chain AEEAc-AEEAc-γGlu-CO(CH2)18COOH; Aib at 20; Ac3c at 38; C-terminal amide (NH2)) [Compound 3] | 0.024 | 754 | 0.12 | 47.5 |  | 100
11 | YXQGTXTSDYSIXLDKKAQXAFIEYLLETGPSSGQPPXS (Aib at 2; αMeF(2F) at 6; αMeL at 13; Lys 17 side chain AEEAc-AEEAc-γGlu-CO(CH2)18COOH; Aib at 20; Ac3c at 38; C-terminal amide (NH2)) [Compound 34] | 0.005 | 3620 | 0.038 | 150 | 0.023 | 191
12 | YXQGTXTSDYSIFLDKKAQXAFIEFLLETGPSSGAPPPS (Aib at 2; αMeF at 6; Lys 17 side chain AEEAc-AEEAc-γGlu-CO(CH2)18COOH; Aib at 20; C-terminal amide (NH2)) [Compound 12] |  | 221 |  | 13.7 | 0.014 | 314
13 | YXQGTXTSDYSIXLDKKAQXAFIEYLLETGPSSGQPPXS (Aib at 2; αMeF at 6; αMeL at 13; Lys 17 side chain AEEAc-AEEAc-γGlu-CO(CH2)18COOH; Aib at 20; Ac3c at 38; C-terminal amide (NH2)) [Compound 35] | 0.008 | 2260 | 0.087 | 65.5 | 0.022 | 200
14 | YXHGTXTSDYSIXLDKKAQXAFIEYLLEXHPSSGQPPPS (Aib at 2; αMeF(2F) at 6; αMeL at 13; Lys 17 side chain AEEAc-AEEAc-γGlu-CO(CH2)18COOH; Aib at 20; Aib at 29; C-terminal amide (NH2)) [Compound 6] | 0.014 | 1290 | 0.058 | 98.3 | 0.02 | 220
15 | YXQGTXTSDYSIFLDKKAQXAFIEFLLETGPSSGAPPXS (Aib at 2; αMeF(2F) at 6; Lys 17 side chain AEEAc-AEEAc-γGlu-CO(CH2)18COOH; Aib at 20; Ac3c at 38; C-terminal amide (NH2)) [Compound 9] |  | 385 |  | 91.9 | 0.017 | 259
16 | YXQGTXTSDYSIXLDKKAQXAFIEYLLETGPSSGXPPPS (Aib at 2; αMeF at 6; αMeL at 13; Lys 17 side chain AEEAc-AEEAc-γGlu-CO(CH2)18COOH; Aib at 20; Aib at 35; C-terminal amide (NH2)) [Compound 7] | 0.013 | 1390 | 0.058 | 98.3 | 0.01 | 440
17 | YXQGTXTSDYSIFLDKKAQXAFIEFLLEGGPSSGAPPXS (Aib at 2; αMeF(2F) at 6; Lys 17 side chain AEEAc-AEEAc-γGlu-CO(CH2)18COOH; Aib at 20; Ac3c at 38; C-terminal amide (NH2)) [Compound 5] |  | 369 |  | 81.4 | 0.022 | 200
18 | YXQGTXTSDYSIFLDKKAQXAFIEYLLETGPSSGAPPPS (Aib at 2; αMeF at 6; Lys 17 side chain AEEAc-AEEAc-γGlu-CO(CH2)18COOH; Aib at 20; C-terminal amide (NH2)) [Compound 13] |  | 566 |  | 110 | 0.012 | 367
19 | YXQGTXTSDYSIFLDKKAQXAFIEYLLEGGPSSGAPPXS (Aib at 2; αMeF(2F) at 6; Lys 17 side chain AEEAc-AEEAc-γGlu-CO(CH2)18COOH; Aib at 20; Ac3c at 38; C-terminal amide (NH2)) [Compound 4] | 0.057 | 318 | 0.071 | 80.3 |  | 107
20 | YXQGTXTSDYSIXLDKKAQXAFIEYLLETGPSSGQPPPS (Aib at 2; αMeF at 6; αMeL at 13; Lys 17 side chain AEEAc-AEEAc-γGlu-CO(CH2)18COOH; Aib at 20; C-terminal amide (NH2)) [Compound 8] |  | 1510 | 0.071 | 80.3 |  | 152
